Ends that are not written are not given here. * marks the point of attachment. Biotin = O=C1N[C@H]2[C@H](CS[C@H]2CCCCC(=O)*)N1
Tests used:
Assay in all cases: peptide or protein array; E. coli proteome chip: purified His-tagged proteins printed in duplicate on Fullmoon slides, blocked with 1% BSA; 10 nM N-terminal biotinylated LfcinB with 1% BSA, room temperature, 1 h; detected with DyLight 649-labeled streptavidin, ratio to DyLight 549-labeled anti-His antibody; ProCAT normalisation, local cut-off; triplicate chips
Conditions in all cases: both partners purified
[1] = target: T1, NrdB (E. coli K-12, UniProt P69924 1-376)
T1 construct: NrdB, E. coli K-12
T1 sequence (looked up): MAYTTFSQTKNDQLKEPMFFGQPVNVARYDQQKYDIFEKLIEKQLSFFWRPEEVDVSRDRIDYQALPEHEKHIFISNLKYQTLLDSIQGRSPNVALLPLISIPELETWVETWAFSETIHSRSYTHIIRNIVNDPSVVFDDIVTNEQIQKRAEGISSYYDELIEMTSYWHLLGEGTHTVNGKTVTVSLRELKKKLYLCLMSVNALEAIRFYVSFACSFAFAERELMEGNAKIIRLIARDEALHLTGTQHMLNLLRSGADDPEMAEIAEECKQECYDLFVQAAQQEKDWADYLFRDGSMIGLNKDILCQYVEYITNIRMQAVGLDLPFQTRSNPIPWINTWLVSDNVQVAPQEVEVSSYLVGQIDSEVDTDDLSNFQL

[2] = target: T2, YobG (E. coli K-12, UniProt P64512 1-47)
T2 construct: YobG, E. coli K-12
T2 chain (looked up): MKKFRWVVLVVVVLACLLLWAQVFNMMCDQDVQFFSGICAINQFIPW

[3] = target: T3, YbcQ (E. coli K-12, UniProt Q47274 1-127)
T3 construct: YbcQ, E. coli K-12
T3 sequence (looked up): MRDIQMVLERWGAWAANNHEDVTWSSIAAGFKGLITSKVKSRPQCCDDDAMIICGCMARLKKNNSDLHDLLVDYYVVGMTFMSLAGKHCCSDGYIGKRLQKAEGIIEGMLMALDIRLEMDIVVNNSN

[4] = target: T4, MetL (E. coli K-12, UniProt P00562 1-810)
T4 construct: MetL, E. coli K-12
T4 sequence (looked up): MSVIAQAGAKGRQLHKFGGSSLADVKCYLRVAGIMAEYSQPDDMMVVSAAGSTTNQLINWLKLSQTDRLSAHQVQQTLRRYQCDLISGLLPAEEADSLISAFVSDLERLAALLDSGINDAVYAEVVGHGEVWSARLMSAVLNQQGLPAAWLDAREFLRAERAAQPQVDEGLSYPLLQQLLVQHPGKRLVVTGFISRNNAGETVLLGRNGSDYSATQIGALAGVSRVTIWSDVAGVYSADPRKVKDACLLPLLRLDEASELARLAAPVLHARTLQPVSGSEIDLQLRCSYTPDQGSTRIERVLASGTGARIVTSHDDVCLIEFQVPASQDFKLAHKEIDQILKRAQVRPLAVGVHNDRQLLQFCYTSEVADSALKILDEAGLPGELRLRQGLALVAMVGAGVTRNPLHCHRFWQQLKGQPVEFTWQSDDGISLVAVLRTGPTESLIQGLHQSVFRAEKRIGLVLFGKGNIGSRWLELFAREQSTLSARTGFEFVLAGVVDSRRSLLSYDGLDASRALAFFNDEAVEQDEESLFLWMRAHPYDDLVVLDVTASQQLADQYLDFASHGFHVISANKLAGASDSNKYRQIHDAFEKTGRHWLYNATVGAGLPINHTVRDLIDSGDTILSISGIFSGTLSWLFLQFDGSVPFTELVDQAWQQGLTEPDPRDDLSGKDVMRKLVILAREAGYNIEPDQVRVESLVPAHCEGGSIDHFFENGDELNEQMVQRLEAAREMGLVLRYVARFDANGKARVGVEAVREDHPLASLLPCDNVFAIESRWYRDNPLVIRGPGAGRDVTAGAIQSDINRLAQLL

[5] = target: T5, YhgA (E. coli K-12, UniProt P31667 1-292)
T5 construct: YhgA, E. coli K-12
T5 sequence (looked up): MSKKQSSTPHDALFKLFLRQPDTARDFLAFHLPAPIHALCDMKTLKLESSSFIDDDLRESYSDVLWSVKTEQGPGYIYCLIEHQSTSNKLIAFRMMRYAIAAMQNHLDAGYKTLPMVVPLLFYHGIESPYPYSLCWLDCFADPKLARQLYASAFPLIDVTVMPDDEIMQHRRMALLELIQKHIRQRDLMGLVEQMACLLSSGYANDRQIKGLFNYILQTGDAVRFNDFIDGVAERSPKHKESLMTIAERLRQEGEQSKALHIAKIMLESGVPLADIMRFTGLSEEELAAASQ

Measured: binding result

B1: N-terminal biotinylated Lactoferricin B (peptide, UniProt P24627 36-60, looked up)
peptide: Biotin-FKCRRWQWRMKKLGAPSITCVRRAF
modifications: ends and bridges not checked
notes: lactoferricin B (LfcinB), cationic antimicrobial peptide of 25 amino acids; also called biotinylated LfcinB; biotin-labeled LfcinB; source: bought: Kelowna Inc
binds: all assays above

Source: publication PMC3229523, “Identification of Lactoferricin B Intracellular Targets Using an Escherichia coli Proteome Chip” (PLoS ONE, 2011)
